Results on four proteins are retold here after PMC6630525 (Molecules, 2019).

Data set [1] concerns the molecule itself. In words: AUC; sedimentation velocity, 40,000 rpm, 20 °C, samples diluted in SEC buffer to OD280 0.5; c(s) distribution and non-interacting species model.
Data set [2] deals with the molecule itself. Put plainly: SAXS; ESRF BM29, samples at 5, 3 and 2 mg/mL, 10 °C; molecular mass estimated with ATSAS.
Data set [3] deals with the molecule itself. In words: SEC; analytical gel filtration, Superdex 200 10/300 GL, 4 °C, 20 mM Tris-HCl with 0.2, 0.5 or 2.0 M NaCl after dialysis into the same buffer.

Values joined by “and” are separate entries in the source; they are usually repeats but may differ in a detail not shown here. Equal entries are not always repeated.

B1: full-length Arabidopsis thaliana NAP1-Related Protein 2 (AtNRP2-His) (natural protein, UniProt Q8LC68-2 1-256, looked up)
chain: MVTDKSKKAKTEEENVEQIDAELVLSIEKLQEIQDDLEKINEKASDEVLEVEQKYNVIRKPVYDKRNEIIKTIPDFWLTAFLSHPALGELLTEEDQKIFKYLSSLDVEDAKDVKSGYSITFSFNPNPFFEDGKLTKTFTFLEEGTTKITATPIKWKEGKGLANGVNHEKNGNKRALPEESFFTWFSDAQHKEDVEDEMQDEQVADIIKEDLWPNPLTYFNNDADEEDFDGDDDGDEEEKEGDSDEDDDEEDEVGEE
notes: NAP1-related protein 2 (AtNRP2), Arabidopsis thaliana; full-length ORF optimised for bacterial expression (Genscript) in pET22b(+) between NdeI and XhoI; Predominantly a dimer in solution; tetramer and a higher species also seen by AUC; also called full-length AtNRP2; not shown: His6, C-terminal, kept
With B1, the “stoichiometry N” value in data set [1] is 2 and 4.

B2: AtNRP1 NT/CT (AtNRP1 residues 14-226) (domain or fragment, Arabidopsis thaliana, UniProt Q9CA59 14-226, looked up)
chain: KGEEENLEQIDAELVLSIEKLQEIQDDLEKINEKASDEVLEVEQKYNVIRKPVYDKRNEVIQSIPGFWMTAFLSHPALGDLLTEEDQKIFKYLNSLEVEDAKDVKSGYSITFHFTSNPFFEDAKLTKTFTFLEEGTTKITATPIKWKEGKGLPNGVNHDDKKGNKRALPEESFFTWFTDAQHKEDAGDEIHDEVADIIKEDLWSNPLTYFNND
notes: NAP1-related protein 1 (AtNRP1), Arabidopsis thaliana, residues 14-226, in pGEX-6P-1 between BamHI and SalI; A few vector residues may remain at the N-terminus after PreScission cleavage (surmise); also called AtNRP1_(14-226); GST-AtNRP1_(14-226); not shown: GST, N-terminal, cleaved
B2: the “stoichiometry N” value in data set [2] was 2.

B3: AtNRP2 NT/CT (AtNRP2 residues 14-223) (domain or fragment, Arabidopsis thaliana, UniProt Q8LC68-2 14-223, looked up)
chain: ENVEQIDAELVLSIEKLQEIQDDLEKINEKASDEVLEVEQKYNVIRKPVYDKRNEIIKTIPDFWLTAFLSHPALGELLTEEDQKIFKYLSSLDVEDAKDVKSGYSITFSFNPNPFFEDGKLTKTFTFLEEGTTKITATPIKWKEGKGLANGVNHEKNGNKRALPEESFFTWFSDAQHKEDVEDEMQDEQVADIIKEDLWPNPLTYFNNDA
notes: NAP1-related protein 2 (AtNRP2), Arabidopsis thaliana, residues 14-223 (first 13 and last 35 residues removed), in pGEX-6P-1 between BamHI and SalI; A few vector residues may remain at the N-terminus after PreScission cleavage (surmise); Heated at 40 °C for 10 min before crystallization; also called AtNRP2_(14-223); GST-AtNRP2_(14-223); not shown: GST, N-terminal, cleaved
Consider B3, for which the “stoichiometry N” value in data set [1] was 2.

B4: full-length Arabidopsis thaliana NAP1-Related Protein 1 (AtNRP1-His) (natural protein, UniProt Q9CA59 1-256, looked up)
chain: MVADKSKKSKIEEKGEEENLEQIDAELVLSIEKLQEIQDDLEKINEKASDEVLEVEQKYNVIRKPVYDKRNEVIQSIPGFWMTAFLSHPALGDLLTEEDQKIFKYLNSLEVEDAKDVKSGYSITFHFTSNPFFEDAKLTKTFTFLEEGTTKITATPIKWKEGKGLPNGVNHDDKKGNKRALPEESFFTWFTDAQHKEDAGDEIHDEVADIIKEDLWSNPLTYFNNDADEEDFDGDDDGDEEGEEDDDDEEEEDGEE
notes: NAP1-related protein 1 (AtNRP1), Arabidopsis thaliana; full-length ORF optimised for bacterial expression (Genscript) in pET22b(+) between NdeI and XhoI; also called full-length AtNRP1; not shown: His6, C-terminal, kept
Consider B4, for which the binding result in data set [3] is “binds”.
